Experimental data published in US20250255905A1 (University of Texas, published 2025).

Target: T1, recombinantly produced human BCMA (human, UniProt Q02223 1-54, limits assumed)
T1 construct: also called B-cell maturation antigen; TNFRSF17
T1 sequence (looked up): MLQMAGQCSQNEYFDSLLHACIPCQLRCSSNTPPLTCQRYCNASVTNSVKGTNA
Experiment: flow cytometry; CAR-transduced cord blood NK cells stained with recombinantly produced human BCMA to detect the CAR on the surface
Description: Following the incubation, the cells were transferred to a v-bottom 96-well plate for cell staining. The cells, after pelleted by centrifugation and washed with flow buffer, were stained in 1:10 Fc block with fluorescently conjugated mouse anti-human CD3, mouse anti-human CD56, mouse anti-human NKG2D, and recombinantly produced human BCMA for 30 minutes on ice in the dark. The stained cells were washed, resuspended in Sytox Viability Dye and recorded on an MACSquant flow cytometer. Data were exported and analyzed using FlowJo v10.6.2. Live CD3-CD56⁺BCMA⁺ […] excluding the viability dye were quantified.

binding result: binds
B1: BCMA-DAP10 CAR (other)
chain: QITLRESGGDVVQPGRSLRLSCAASGFTFSSYAIHWVRQAPGKGLEWVAVTWHDGSNKYYAESVMGRFTISRDNSKNTLYLHMNSLRAEDTGVYYCARAKFGEPQYFQHWGQGTLVTVSSGGGGSGGGGSGGGGSDIVMTQSPSFLSASVGDRVTITCRASQGINNYLAWYQQKPGIAPKLLIYAASTLQSGVPSRFGGSGSGTEFTLTISSLQPEDFATYYCQQLKSYPFTFGPGTKVEIKRAAAIEVMYPPPYLDNEKSNGTIIHVKGKHLCPSPLFPGPSKPKDPKFWVLVVVGGVLACYSLLVTVAFIIFWVLCARPRRSPAQEDGKVYINMPGRGRVKFSRSADAPAYQQGQNQLYNELNLGRREEYDVLDKRRGRDPEMGGKPRRKNPQEGLYNELQKDKMAEAYSEIGMKGERRRGKGHDGLYQGLSTATKDTYDALHMQALPPR
notes: It leaves out the signal peptide, E2A and IL-15; E2A residues left at the C-terminus after cleavage are not described; also called BCMA CAR; BCMA targeting CAR
